T1: FcγRIIb (human, UniProt P31994 43-217)
T1 construct: extracellular domain; also called FcgRIIb; CD32B
T1 sequence (looked up): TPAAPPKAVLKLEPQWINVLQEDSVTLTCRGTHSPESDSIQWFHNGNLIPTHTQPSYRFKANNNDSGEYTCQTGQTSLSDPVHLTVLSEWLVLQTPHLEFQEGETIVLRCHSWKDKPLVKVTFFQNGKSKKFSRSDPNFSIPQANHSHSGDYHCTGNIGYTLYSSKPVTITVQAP

T2: FcγRIIa H (human, UniProt P12318 34-217)
T2 construct: extracellular domain; also called FcgRIIa H; 2aH; not shown: His tag at the C terminus
T2 sequence (looked up): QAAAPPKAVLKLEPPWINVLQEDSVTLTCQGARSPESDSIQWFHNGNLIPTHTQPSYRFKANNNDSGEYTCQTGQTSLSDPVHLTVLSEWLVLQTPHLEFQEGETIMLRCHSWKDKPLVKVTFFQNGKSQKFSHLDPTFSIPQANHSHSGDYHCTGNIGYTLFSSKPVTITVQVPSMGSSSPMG

T3: FcγRIIb (human, UniProt P31994 43-217)
T3 construct: extracellular domain; also called FcgRIIb; 2b; not shown: His tag at the C terminus
T3 sequence (looked up): T1 sequence (looked up)

B1: GpH7-A5/GpH7-B3 variant I332_12R/GpL16-k0 (antibody, human IgG1, kappa)
heavy 1: not shown
heavy 2: not shown
light: DIVMTQSPLSLPVTPGEPASISCQASESLVHSNRNTYLHWYLQKPGQSPQLLIYKVSNRFSGVPDRFSGSGSGTDFTLKISRVEAEDVGVYYCSQNTHVPPTFGQGTKVEIERTVAAPSVFIFPPSDEQLKSGTASVVCLLNNFYPREAKVQWKVDNALQSGNSQESVTEQDSKDSTYSLSSTLTLSKADYEKHKVYACEVTHQGLSSPVTKSFNRGEC
notes: He Ab; mutation in the GpH7-B3 chain only; also called He Ab
B2: GpH7-A5/GpH7-B3 variant P329_01G/GpL16-k0 (antibody, human IgG1, kappa)
heavy 1: not shown
heavy 2: not shown
light: B1 light
notes: He Ab: mutation in the GpH7-B3 H chain only
B3: GpH7-A5/GpH7-B3 variant A327_04F/GpL16-k0 (antibody, human IgG1, kappa)
heavy 1: not shown
heavy 2: not shown
light: B1 light
notes: as for B2
B4: GpH7-A5/GpH7-B3 variant L328_12R/GpL16-k0 (antibody, human IgG1, kappa)
heavy 1: not shown
heavy 2: not shown
light: B1 light
notes: as for B2
B5: GpH7-A5/GpH7-B3 variant P329_08L/GpL16-k0 (antibody, human IgG1, kappa)
heavy 1: not shown
heavy 2: not shown
light: B1 light
notes: as for B1
B6: GpH7-A5/GpH7-B3 variant P329_11K/GpL16-k0 (antibody, human IgG1, kappa)
heavy 1: not shown
heavy 2: not shown
light: B1 light
notes: as for B1
B7: GpH7-A5/GpH7-B3 variant A327_12R/GpL16-k0 (antibody, human IgG1, kappa)
heavy 1: not shown
heavy 2: not shown
light: B1 light
notes: as for B2
B8: GpH7-A5/GpH7-B3 variant L328_11K/GpL16-k0 (antibody, human IgG1, kappa)
heavy 1: not shown
heavy 2: not shown
light: B1 light
notes: as for B2
B9: GpH7-A5/GpH7-B3 variant L328_18N/GpL16-k0 (antibody, human IgG1, kappa)
heavy 1: not shown
heavy 2: not shown
light: B1 light
notes: as for B1
B10: GpH7-A5/GpH7-B3 variant L328_05P/GpL16-k0 (antibody, human IgG1, kappa)
heavy 1: not shown
heavy 2: not shown
light: B1 light
notes: as for B1
B11: GpH7-A5/GpH7-B3 variant I336_15Y/GpL16-k0 (antibody, human IgG1, kappa)
heavy 1: not shown
heavy 2: not shown
light: B1 light
notes: as for B1
B12: GpH7-A5/GpH7-B3 variant P329_09D/GpL16-k0 (antibody, human IgG1, kappa)
heavy 1: not shown
heavy 2: not shown
light: B1 light
notes: as for B1
B13: GpH7-A5/GpH7-B3 variant P329_10E/GpL16-k0 (antibody, human IgG1, kappa)
heavy 1: not shown
heavy 2: not shown
light: B1 light
notes: as for B1
B14: GpH7-A5/GpH7-B3 variant P329_03V/GpL16-k0 (antibody, human IgG1, kappa)
heavy 1: not shown
heavy 2: not shown
light: B1 light
notes: as for B1
B15: GpH7-A5/GpH7-B3 variant P329_15Y/GpL16-k0 (antibody, human IgG1, kappa)
heavy 1: not shown
heavy 2: not shown
light: B1 light
notes: as for B1
B16: GpH7-A5/GpH7-B3 variant P329_19Q/GpL16-k0 (antibody, human IgG1, kappa)
heavy 1: not shown
heavy 2: not shown
light: B1 light
notes: as for B1
B17: GpH7-A5/GpH7-B3 variant P329_07I/GpL16-k0 (antibody, human IgG1, kappa)
heavy 1: not shown
heavy 2: not shown
light: B1 light
notes: as for B1

Tests used:
FcγRIa [1] = molecular target: T4, FcγRIa (human, UniProt P12314 16-292); assay: ratio of He/Con_1a to He/Con_2b (FcγRIa over FcγRIIb), SPR
T4 construct: extracellular domain; also called FcgRI; CD64
Method: (§1) The heterodimerized antibodies He Abs in which one of the H chains was introduced with an alteration were assayed for their binding activities to each activating FcγR and inhibitory FcγR according to the method described in Example 4. […] The activating FcγRs in FIGS. 26, 27, 28, and 29 are FcγRIa, FcγRIIa (R), FcγRIIa (H), and FcγRIIIa, respectively.
(§2) Analysis of interaction between objective antibody and the FcγR was carried out using Biacore T100 (GE Healthcare). HBS-EP+ (GE Healthcare) was used as the running buffer, and the measurement temperature was set to 25° C. Chips produced by immobilizing the antigen peptide by the amine coupling method to a Series S Sencor Chip CM5 (GE Healthcare), or alternatively, chips produced by allowing preliminarily biotinylated antigen peptides to interact with and immobilize onto a Series S Sensor Chip SA (certified) (GE Healthcare) were used. Antibodies of interest were captured onto an antigen peptide-immobilized chip, and allowed to interact to each FcγR diluted with running buffer. To regenerate and repeatedly use the chip, the antibodies captured on the chip were washed off by reacting 10 mM glycine-HCl, pH 1.5.

FcγRIa [2] = molecular target: T4, FcγRIa; assay: SPR (Biacore), captured antibody, soluble FcγR; relative to GpH7-A5/GpH7-B3/GpL16-k0 = 100
Method: as §1, §2

FcγRIIb [3] = molecular target: T1, FcγRIIb; assay: as above
Method: as §1, §2

FcγRIIa H [4] = molecular target: T2, FcγRIIa H; assay: SPR (Biacore); He/Con_2aH divided by He/Con_2b (FcγRIIa H versus FcγRIIb)
Method: as §1, §2

FcγRIIa H [5] = molecular target: T2, FcγRIIa H; assay: SPR (Biacore), FcγR passed over captured antibody; binding amount as % of control GpH7-A5/GpH7-B3/GpL16-k0 (=100)
Method: as §1, §2

FcγRIIb [6] = molecular target: T3, FcγRIIb; assay: as above
Method: as §1, §2

T4 sequence (P12314 16-292): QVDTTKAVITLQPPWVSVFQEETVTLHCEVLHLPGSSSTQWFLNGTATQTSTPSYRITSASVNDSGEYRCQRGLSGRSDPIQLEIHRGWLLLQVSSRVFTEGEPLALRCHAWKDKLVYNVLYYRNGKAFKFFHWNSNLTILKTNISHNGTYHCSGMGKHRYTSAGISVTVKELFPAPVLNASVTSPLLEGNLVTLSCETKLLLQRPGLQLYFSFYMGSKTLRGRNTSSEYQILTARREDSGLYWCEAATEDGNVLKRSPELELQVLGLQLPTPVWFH

Binder	He_1a/2b (Ia/IIb) (FcγRIa [1])	He/Con_1a (FcγRIa [2])	He/Con_2b (FcγRIIb [3])	He_2aH/2b (IIaH/IIb) (FcγRIIa H [4])	He/Con_2aH (FcγRIIa H [5])	He/Con_2b (FcγRIIb [6])
B1	2.05	100 % of control	48.9 % of control	–	–	–
B2	–	–	–	1.32 ratio	54.9 relative, control = 100	41.7 relative, control = 100
B3	–	–	–	1.32 ratio	84.4 relative, control = 100	63.7 relative, control = 100
B4	–	–	–	4.6 ratio	42.5 relative, control = 100	–
B5	2.95	85.7 % of control	29.1 % of control	–	–	–
B6	4.17	70.4 % of control	16.9 % of control	–	–	–
B7	–	–	–	1.26 ratio	11.3 relative, control = 100	–
B8	–	–	–	4.27 ratio	32.2 relative, control = 100	–
B9	1.22	98.7 % of control	80.8 % of control	–	–	–
B10	1.42	92.2 % of control	65.1 % of control	–	–	–
B11	1.51	103 % of control	68.2 % of control	–	–	–
B12	1.45	77.6 % of control	53.5 % of control	–	–	–
B13	1.5	78.8 % of control	52.7 % of control	–	–	–
B14	2.53	97.4 % of control	38.5 % of control	–	–	–
B15	2.09	95.6 % of control	45.7 % of control	–	–	–
B16	2.31	70.7 % of control	30.7 % of control	–	–	–
B17	2.72	94.1 % of control	34.6 % of control	–	–	–
